In IntAct's records for PubMed 21525010:

B1: Invasin IpaA (Shigella flexneri), P18010 (parent)
chain: MHNVNNTQAPTFLYKATSPSSTEYSELKSKISDIHSSQTSLKTPASVSEKENFATSFNQKCLDFLFSSSGKEDVLRSIYSNSMNAYAKSEILEFSNVLYSLVHQNGLNFENEKGLQKIVAQYSELIIKDKLSQDSAFGPWSAKNKKLHQLRQNIEHRLALLAQQHTSGEALSLGQKLLNTEVSSFIKNNILAELKLSNETVSSLKLDDLVDAQAKLAFDSLRNQRKNTIDSKGFGIGKLSRDLNTVAVFPELLRKVLNDILEDIKDSHPIQDGLPTPPEDMPDGGPTPGANEKTSQPVIHYHINNDNRTYDNRVFDNRVYDNSYHENPENDAQSPTSQTNDLLSRNGNSLLNPQRALVQKVTSVLPHSISDTVQTFANNSALEKVFNHTPDNSDGIGSDLLTTSSQERSANNSLSRGHRPLNIQNSSTTPPLHPEGVTSSNDNSSDTTKSSASLSHRVASQINKFNSNTDSKVLQTDFLSRNGDTYLTRETIFEASKKVTNSLSNLISLIGTKSGTQERELQEKSKDITKSTTEHRINNKLKVTDANIRNYVTETNADTIDKNHAIYEKAKEVSSALSKVLSKIDDTSAELLTDDISDLKNNNDITAENNNIYKAAKDVTTSLSKVLKNINKD

Variants of: B1
Conditions: with vinc_human VCL

Variant	effect of a mutation on the interaction
A495K	decreasing interaction

Variants of: B1
Conditions: with vinc_human VCL
Remark: another data set of the same source

Variant	effect of a mutation on the interaction
V499E;L503Q	disrupting interaction
